Results published in patent US20210346432A1 (Memorial Sloan Kettering, published 2021).
No end group written: not given here. *: point of attachment. Biotin = O=C1N[C@H]2[C@H](CS[C@H]2CCCCC(=O)*)N1

T1: ET140-p5 (human)
T1 construct: also called peptide 5
T1 peptide: Biotin-SGSGGQCSQNEYFDSLLHA

T2: ET140-p10 (human, cysteine pairing not given here)
T2 construct: also called peptide 10
T2 peptide: Biotin-SGSGNEYFDSLLHACIPCQ

T3: ET140-p22 (human, cysteine pairing not given here)
T3 construct: also called peptide 22
T3 peptide: Biotin-SGSGPCQLRCSSNTPPLTC

T4: ET140-p37 (human)
T4 construct: also called peptide 37
T4 peptide: Biotin-SGSGQRYCNASVTNSVKGT

T5: ET140-p35 (human, cysteine pairing not given here)
T5 construct: also called peptide 35
T5 peptide: Biotin-SGSGTCQRYCNASVTNSVK

T6: ET140-p18 (human, cysteine pairing not given here)
T6 construct: also called peptide 18
T6 peptide: Biotin-SGSGHACIPCQLRCSSNTP

T7: ET140-p27 (human, cysteine pairing not given here)
T7 construct: also called peptide 27
T7 peptide: Biotin-SGSGCSSNTPPLTCQRYCN

T8: ET140-p21 (human, cysteine pairing not given here)
T8 construct: also called peptide 21
T8 peptide: Biotin-SGSGIPCQLRCSSNTPPLT

T9: ET140-p23 (human, cysteine pairing not given here)
T9 construct: also called peptide 23
T9 peptide: Biotin-SGSGCQLRCSSNTPPLTCQ

T10: ET140-p13 (human, cysteine pairing not given here)
T10 construct: also called peptide 13
T10 peptide: Biotin-SGSGFDSLLHACIPCQLRC

T11: ET140-p31 (human, cysteine pairing not given here)
T11 construct: also called peptide 31
T11 peptide: Biotin-SGSGTPPLTCQRYCNASVT

T12: ET140-p38 (human)
T12 construct: also called peptide 38
T12 peptide: Biotin-SGSGRYCNASVTNSVKGTN

T13: ET140-p11 (human, cysteine pairing not given here)
T13 construct: also called peptide 11; ET140-pll
T13 peptide: Biotin-SGSGEYFDSLLHACIPCQL

T14: ET140-p28 (human, cysteine pairing not given here)
T14 construct: also called peptide 28
T14 peptide: Biotin-SGSGSSNTPPLTCQRYCNA

T15: ET140-p8 (human)
T15 construct: also called peptide 8
T15 peptide: Biotin-SGSGSQNEYFDSLLHACIP

T16: ET140-p24 (human, cysteine pairing not given here)
T16 construct: also called peptide 24
T16 peptide: Biotin-SGSGQLRCSSNTPPLTCQR

T17: ET140-p32 (human, cysteine pairing not given here)
T17 construct: also called peptide 32
T17 peptide: Biotin-SGSGPPLTCQRYCNASVTN

T18: ET140-p9 (human, cysteine pairing not given here)
T18 construct: also called peptide 9
T18 peptide: Biotin-SGSGQNEYFDSLLHACIPC

T19: ET140-p2 (human)
T19 construct: also called peptide 2
T19 peptide: Biotin-SGSGQMAGQCSQNEYFDSL

T20: ET140-p3 (human)
T20 construct: also called peptide 3
T20 peptide: Biotin-SGSGMAGQCSQNEYFDSLL

T21: ET140-p30 (human, cysteine pairing not given here)
T21 construct: also called peptide 30
T21 peptide: Biotin-SGSGNTPPLTCQRYCNASV

T22: ET140-p39 (human)
T22 construct: also called peptide 39
T22 peptide: Biotin-SGSGYCNASVTNSVKGTNA

T23: biotinylated BCMA-Fc protein (human, UniProt Q02223 1-54, biotinylated (site not stated))
T23 construct: also called BCMA recombinant antigen; not shown: Fc part
T23 sequence: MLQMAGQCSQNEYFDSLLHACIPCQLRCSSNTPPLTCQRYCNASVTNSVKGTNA

B1: ET140-174 mIgG1 (antibody, V domains shown)
VH: EVQLVQSGAEVKKPGESLKISCKGSGYSFTSYWIGWVRQMPGKGLEWMGIIYPGDSDTRYSPSFQGHVTISADKSISTAYLQWSSLKASDTAMYYCARYSGSFDNWGQGTLVTVSS
VL: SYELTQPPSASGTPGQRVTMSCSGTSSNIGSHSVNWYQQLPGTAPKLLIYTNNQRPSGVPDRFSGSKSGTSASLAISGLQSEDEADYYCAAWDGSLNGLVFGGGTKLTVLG
notes: also called ET140-24 mIgG1; ET140-24
B2: ET140-204 mIgG1 (antibody, V domains shown)
VH: EVQLVQSGAEMKKPGASLKLSCKASGYTFIDYYVYWMRQAPGQGLESMGWINPNSGGTNYAQKFQGRVTMTRDTSISTAYMELSRLRSDDTAMYYCARSQRDGYMDYWGQGTLVTVSS
VL: QSALTQPASVSASPGQSIAISCTGTSSDVGWYQQHPGKAPKLMIYEDSKRPSGVSNRFSGSKSGNTASLTISGLQAEDEADYYCSSNTRSSTLVFGGGTKLTVLG
notes: also called ET140-54 mIgG1; ET140-54
B3: ET140-153 mIgG1 (antibody, V domains shown)
VH: QVQLVQSGAEVKKPGSSVKVSCKASGGTFSSYAISWVRQAPGQGLEWMGRIIPILGIANYAQKFQGRVTITADKSTSTAYMELSSLRSEDTAVYYCARGGYYSHDMWSEDWGQGTLVTVSS
VL: LPVLTQPPSASGTPGQRVTISCSGRSSNIGSNSVNWYRQLPGAAPKLLIYSNNQRPPGVPVRFSGSKSGTSASLAISGLQSEDEATYYCATWDDNLNVHYVFGTGTKVTVLG
notes: also called ET140-3 mIgG1; ET140-3

Target: T1, ET140-p5
Assay: peptide ELISA on streptavidin plate, antibody 1 ug/mL
Method: (§1) The peptides were coated onto Streptavidin plates at 2 ug/mL in PBST (PBS+0.05% Tween-20). After washing and blocking with 3% BSA. […] “mIgG1” used in all Examples represents that the variable region is fully human and the Fc part is mouse IgG1. Then HRP anti-mouse IgG detection antibody was added to each well. Finally, the color was developed using TMB substrate. A450 was recorded for data analysis.

A450 | Binder
0.073 | B1
0.069 | B2
0.08 | B3

Target: T2, ET140-p10
Assay: as above
Method: as §1

A450 | Binder
0.115 | B1
0.087 | B2
0.758 | B3

Target: T3, ET140-p22
Assay: as above
Method: as §1

A450 | Binder
0.098 | B1
0.111 | B2
0.131 | B3

Target: T4, ET140-p37
Assay: as above
Method: as §1

A450 | Binder
0.086 | B1
0.083 | B2
0.085 | B3

Target: T5, ET140-p35
Assay: as above
Method: as §1

A450 | Binder
0.076 | B1
0.071 | B2
0.072 | B3

Target: T6, ET140-p18
Assay: as above
Method: as §1

A450 | Binder
0.099 | B1
0.105 | B2
0.097 | B3

Target: T7, ET140-p27
Assay: as above
Method: as §1

A450 | Binder
0.1 | B1
0.103 | B2
0.12 | B3

Target: T8, ET140-p21
Assay: as above
Method: as §1

A450 | Binder
0.086 | B1
0.077 | B2
0.089 | B3

Target: T9, ET140-p23
Assay: as above
Method: as §1

A450 | Binder
0.109 | B1
0.101 | B2
0.113 | B3

Target: T10, ET140-p13
Assay: as above
Method: as §1

A450 | Binder
0.143 | B1
0.138 | B2
1.03 | B3

Target: T11, ET140-p31
Assay: as above
Method: as §1

A450 | Binder
0.085 | B1
0.08 | B2
0.107 | B3

Target: T12, ET140-p38
Assay: as above
Method: as §1

A450 | Binder
0.071 | B1
0.069 | B2
0.08 | B3

Target: T13, ET140-p11
Assay: as above
Method: as §1

A450 | Binder
0.094 | B1
0.085 | B2
1.07 | B3

Target: T14, ET140-p28
Assay: as above
Method: as §1

A450 | Binder
0.101 | B1
0.093 | B2
0.109 | B3

Target: T15, ET140-p8
Assay: as above
Method: as §1

A450 | Binder
0.083 | B1
0.073 | B2
0.178 | B3

Target: T16, ET140-p24
Assay: as above
Method: as §1

A450 | Binder
0.357 | B1
0.325 | B2
0.382 | B3

Target: T17, ET140-p32
Assay: as above
Method: as §1

A450 | Binder
0.092 | B1
0.092 | B2
0.099 | B3

Target: T18, ET140-p9
Assay: as above
Method: as §1

A450 | Binder
0.104 | B1
0.087 | B2
2.25 | B3

Target: T19, ET140-p2
Assay: as above
Method: as §1

A450 | Binder
0.079 | B1
0.076 | B2
0.076 | B3

Target: T20, ET140-p3
Assay: as above
Method: as §1

A450 | Binder
0.08 | B1
0.083 | B2
0.086 | B3

Target: T21, ET140-p30
Assay: as above
Method: as §1

A450 | Binder
0.083 | B1
0.08 | B2
0.111 | B3

Target: T22, ET140-p39
Assay: as above
Method: as §1

A450 | Binder
0.071 | B1
0.074 | B2
0.072 | B3

Target: T23, biotinylated BCMA-Fc protein
Assay: SPR (BIAcore X100), biotinylated BCMA-Fc captured on Sensor Chip CAP, antibody injected, 1:1 Langmuir fit
Method: In brief, 50 μg/mL of modified streptavidin was immobilized onto a Sensor Chip CAP by flowing the Biotin CAPture Reagent through the flow cells at 2 μL/min for 5 minutes. 10 ug/mL biotinylated BCMA-Fc protein was loaded onto the flow cell at a rate of 30 μL/min for 3 minutes. Following the standard protocol for kinetics, a series of injection of ESK1 was performed between 0.6 and 15 μg/mL, each step consisting of a 3 minute injection at 30 μL/min and 3 minute disassociation. […] Kinetic constants were derived by the global fitting (1:1 Langmuir binding model) using BIAcore ×100 Evaluation Software (Version 2.0.1).

Kd | Binder
4.8 nM | B1
8.1 nM | B2
1.2 nM | B3
